Values of other authors, collected in paper PMC10643566, “Insights into the mechanism of SARS-CoV-2 main protease autocatalytic maturation from model precursors” (Communications Biology, 2023).
pKd: −log10 of the molar value.

Target: MPro (SARS-CoV-2) (UniProt P0DTD1)
Settings: cited from earlier work

MPro (from UniProt P0DTD1)
pKd: 5.89
